Measurements published in patent US10544159B2, “Artemisinin derivatives, methods for their preparation and their use as antimalarial agents” (priority 2012, dated 2020).
Values joined by “and” are separate entries in the source; they are usually repeats but may differ in a detail not shown here. Identical values can stand only once.

Assays:
[1] = Total turnovers and regio-/stereoselectivity of P450 variants in artemisinin hydroxylation (analytical scale); assay type: biochemical; details: for TTN: total turnovers on artemisinin, NADPH cofactor regeneration system, analytical scale; for Product distribution (%) 4: share of 6a-hydroxy-ART (4); for Product distribution (%) 4 / Product distribution (%) 3 / Product distribution (%) 2: 0.5 mM artemisinin, 0.5-1 μM P450, 12 hours; for Product distribution (%) 3: share of 7(R)-hydroxy-ART (3); for Product distribution (%) 2: share of 7(S)-hydroxy-ART (2)
Description: Determination of Total Turnovers and Regio- and Stereoselectivity of the P450 Variants.
After 12 hours, 9-fluorenone was added to the mixtures as internal standard. The hydroxylation products were functionalized with benzoyl chloride followed by HPLC analysis. TTN values were calculated based on the total amount of hydroxylated products in the reactions as quantified based on the calibration curves generated using purified 2-4. The enzyme regio- and stereoselectivity was determined based on the area under the curve of the chromatographic peaks corresponding to the hydroxylation products 2, 3, and 4. Mean and standard deviation values reported for P450 variants in Table 1 were calculated from experiments performed at least in triplicate.

[2] = KD for artemisinin binding to P450 variants (heme spin-shift titration); details: binding of artemisinin to 3 μM purified P450, pH 8.0
Description: Determination of KD Values for Artemisinin Binding.
Binding experiments were performed using 3 μM purified P450 in potassium phosphate buffer (50 mM, pH 8.0) by titrating increasing amounts of artemisinin (5 μM to 1 mM) from an ethanol stock solution (50 mM). At each concentration, a difference spectrum from 350 to 500 nm was recorded and binding curves were generated by plotting the change in absorbance at 390 nm and 420 nm corresponding to the high-spin and low-spin state of the enzyme, respectively, against the artemisinin concentration. KD values were calculated using Sigma Plot via non-linear fitting of the experimental binding curves to an equation describing a standard 1:1 binding interaction. Reported mean and standard deviation values were calculated from experiments performed at least in triplicate.

[3] = assay type: biochemical; details: 250 μM artemisinin, rates measured over initial 30 seconds
Description: Measurement of Product Formation Rates and Coupling Efficiency.
Initial product formation rates were measured from 1 mL-scale reactions containing 250 μM artemisinin, 0.1-0.5 μM purified P450, and 200 μM NADPH in potassium phosphate buffer (50 mM, pH 8.0) at room temperature. After 30 seconds, the samples were extracted with dichloromethane and subjected to benzoyl chloride derivatization followed by HPLC analysis as described above. Cofactor oxidation rate in the presence of artemisinin was measured by monitoring NADPH depletion at 340 nm (ε=6.22 mM^−1 cm^−1) using 0.1 μM purified P450, 250 μM artemisinin, and 200 μM NADPH. Coupling efficiency was calculated from the ratio between the initial product formation rate and the initial NADPH oxidation rate. Reported mean and standard deviation values were calculated from experiments performed at least in triplicate.

Row | Molecule | TTN [1] | Kd [2] [µM] | Product formation rate [3] | (S)-stereoselectivity for C7 hydroxylation ([1]; artemisinin as substrate) [%] | regioselectivity for C7 hydroxylation ([1]; artemisinin as substrate) [%] | Product distribution (%) 4 [1] [%] | Product distribution (%) 3 [1] [%] | Product distribution (%) 2 [1] [%] | regioselectivity toward 6a-hydroxylation ([1]; artemisinin as substrate) [%]
1 | CYP102A1: naturally occurring wild-type cytochrome P450 CYP102A1 from Bacillus megaterium (SEQ ID NO.: 1) (protein, listed as Bacillus megaterium) MTIKEMPQPKTFGELKNLPLLNTDKPVQALMKIADELGEIFKFEAPGRVTRYLSSQRLIKEACDESRFDKNLSQALKFVRDFAGDGLFTSWTHEKNWKKAHNILLPSFSQQAMKGYHAMMVDIAVQLVQKWERLNADEHIEVPEDMTRLTLDTIGLCGFNYRFNSFYRDQPHPFITSMVRALDEAMNKLQRANPDDPAYDENKRQFQEDIKVMNDLVDKIIADRKASGEQSDDLLTHMLNGKDPETGEPLDDENIRYQIITFLIAGHETTSGLLSFALYFLVKNPHVLQKAAEEAARVLVDPVPSYKQVKQLKYVGMVLNEALRLWPTAPAFSLYAKEDTVLGGEYPLEKGDELMVLIPQLHRDKTIWGDDVEEFRPERFENPSAIPQHAFKPFGNGQRACIGQQFALHEATLVLGMMLKHFDFEDHTNYELDIKETLTLKPEGFVVKAKSKKIPLGGIPSPSTEQSAKKVRKKAENAHNTPLLVLYGSNMGTAEGTARDLADIAMSKGFAPQVATLDSHAGNLPREGAVLIVTASYNGHPPDNAKQFVDWLDQASADEVKGVRYSVFGCGDKNWATTYQKVPAFIDETLAAKGAENIADRGEADASDDFEGTYEEWREHMWSDVAAYFNLDIENSEDNKSTLSLQFVDSAADMPLAKMHGAFSTNVVASKELQQPGSARSTRHLEIELPKEASYQEGDHLGVIPRNYEGIVNRVTARFGLDASQQIRLEAEEEKLAHLPLAKTVSVEELLQYVELQDPVTRTQLRAMAAKTVCPPHKVELEALLEKQAYKEQVLAKRLTMLELLEKYPACEMKFSEFIALLPSIRPRYYSISSSPRVDEKQASITVSVVSGEAWSGYGEYKGIASNYLAELQEGDTITCFISTPQSEFTLPKDPETPLIMVGPGTGVAPFRGFVQARKQLKEQGQSLGEAHLYFGCRSPHEDYLYQEELENAQSEGIITLHTAFSRMPNQPKTYVQHVMEQDGKKLIELLDQGAHFYICGDGSQMAPAVEATLMKSYADVHQVSEADARLWLQQLEEKGRYAKDVWAG | < 1 |  |  |  |  |  |  |  | 
2 | FL#41: CYP102A1-derived engineered P450 variant (SEQ ID NO. 4) (protein) MTIKEMPQPKTFGELKNLPLLNTDKPVQALMKIADELGEIFKFEAPGRVTRYLSSQRLIKEACDESRFDKNLSQALKFVRDFAGDGLATSWTHEKNWKKAHNILLPSFSQQAMKGYHAMMVDIAVQLVQKWERLNADEHIEVPEDMTRLTLDTIGLCGFNYRFNSFYRDQPHPFITSMVRALDEAMNKLQRANPDDPAYDENKRQFQEDIKVMNDLVDKIIADRKASGEQSDDLLTHMLNGKDPETGEPLDDENIRYQIITFLIAGHETTSGLLSFALYFLVKNPHVLQKAAEEAARVLVDPVPSYKQVKQLKYVGMVLNEALRLWPTAPAFSLYAKEDTVLGGEYPLEKGDELMVLIPQLHRDKTIWGDDVEEFRPERFENPSAIPQHAFKPFGNGQRACIGQQFALHEATLVLGMMLKHFDFEDHTNYELDIKETLTLKPEGFVVKAKSKKIPLGGIPSPSTEQSAKKVRKKAENAHNTPLLVLYGSNMGTAEGTARDLADIAMSKGFAPQVATLDSHAGNLPREGAVLIVTASYNGHPPDNAKQFVDWLDQASADEVKGVRYSVFGCGDKNWATTYQKVPAFIDETLAAKGAENIADRGEADASDDFEGTYEEWREHMWSDVAAYFNLDIENSEDNKSTLSLQFVDSAADMPLAKMHGAFSTNVVASKELQQPGSARSTRHLEIELPKEASYQEGDHLGVIPRNYEGIVNRVTARFGLDASQQIRLEAEEEKLAHLPLAKTVSVEELLQYVELQDPVTRTQLRAMAAKTVCPPHKVELEALLEKQAYKEQVLAKRLTMLELLEKYPACEMKFSEFIALLPSIRPRYYSISSSPRVDEKQASITVSVVSGEAWSGYGEYKGIASNYLAELQEGDTITCFISTPQSEFTLPKDPETPLIMVGPGTGVAPFRGFVQARKQLKEQGQSLGEAHLYFGCRSPHEDYLYQEELENAQSEGIITLHTAFSRMPNQPKTYVQHVMEQDGKKLIELLDQGAHFYICGDGSQMAPAVEATLMKSYADVHQVSEADARLWLQQLEEKGRYAKDVWAG | about 50 |  |  |  |  |  |  |  | 
3 | IV-H4: FL#62-derived P450 variant (SEQ ID NO. 9), 7(S)-hydroxylating (protein) MTIKEMPQPKTFGELKNLPLLNTDKPVQALMKIADELGEIFKFEAPGRVTRYLSSQRLIKEACDESRFDKNLSQALKFSRDVAGDGLATSWTHEKNWKKAHNILLPSFSQQAMKGYHAMMVDIAVQLVQKWERLNADEHIEVSEDMTRLTLDTIGLCGFNYRFNSFYRDQPHPFIISMVRTLDEVMNKLQRANPDDPVYDENKRQCQEDIKVMNDLVDKIIADRKARGEQSDDLLTQMLNGKDPETGEPLDDGNISYQIITFLIAGHETTSGLLSFALYFLVKNPHVLQKVAEEAARVLVDPVPSYKQVKQLKYVGMVLNEALRLWPTAPAFSLYAKEDTVLGGEYPLEKGDEVMVLIPQLHRDKTIWGDDVEEFRPERFENPSAIPQHAFKPFGNGQRACIGQQFALHEATLVLGMMLKHFDFEDHTNYELDIKETLTLKPEGFVVKAKSKKIPLGGIPSPSTEQSAKKVRKKAENAHNTPLLVLYGSNMGTAEGTARDLADIAMSKGFAPQVATLDSHAGNLPREGAVLIVTASYNGHPPDNAKQFVDWLDQASADEVKGVRYSVFGCGDKNWATTYQKVPAFIDETLAAKGAENIADRGEADASDDFEGTYEEWREHMWSDVAAYFNLDIENSEDNKSTLSLQFVDSAADMPLAKMHGAFSTNVVASKELQQPGSARSTRHLEIELPKEASYQEGDHLGVIPRNYEGIVNRVTARFGLDASQQIRLEAEEEKLAHLPLAKTVSVEELLQYVELQDPVTRTQLRAMAAKTVCPPHKVELEALLEKQAYKEQVLAKRLTMLELLEKYPACEMKFSEFIALLPSIRPRYYSISSSPRVDEKQASITVSVVSGEAWSGYGEYKGIASNYLAELQEGDTITCFISTPQSEFTLPKDPETPLIMVGPGTGVAPFRGFVQARKQLKEQGQSLGEAHLYFGCRSPHEDYLYQEELENAQSEGIITLHTAFSRMPNQPKTYVQHVMEQDGKKLIELLDQGAHFYICGDGSQMAPAVEATLMKSYADVHQVSEADARLWLQQLEEKGRYAKDVWAG | 362 and 362 ± 15 | 53 ± 11 | 100 ± 4 Mole product per mole P450 per minute | > 99.9 | > 99.9 | 0 | 0 | 100 | 
4 | II-E2: FL#62-derived P450 variant (SEQ ID NO. 13) (protein) MTIKEMPQPKTFGELKNLPLLNTDKPVQALMKIADELGEIFKFEAPGRVTRYLSSQRLIKEACDESRFDKNLSQALKFNRDFAGDGLATSWTHEKNWKKAHNILLPSFSQQAMKGYHAMMVDIAVQLVQKWERLNADEHIEVSEDMTRLTLDTIGLCGFNYRFNSFYRDQPHPFIISMVRTLDEVMNKLQRANPDDPVYDENKRQCQEDIKVMNDLVDKIIADRKARGEQSDDLLTQMLNGKDPETGEPLDDGNISYQIITFLIAGHETTSGLLSFALYFLVKNPHVLQKVAEEAARVLVDPVPSYKQVKQLKYVGMVLNEALRLWPTAPAFSLYAKEDTVLGGEYPLEKGDEVMVLIPQLHRDKTIWGDDVEEFRPERFENPSAIPQHAFKPFGNGQRACIGQQFALHEATLVLGMMLKHFDFEDHTNYELDIKETLTLKPEGFVVKAKSKKIPLGGIPSPSTEQSAKKVRKKAENAHNTPLLVLYGSNMGTAEGTARDLADIAMSKGFAPQVATLDSHAGNLPREGAVLIVTASYNGHPPDNAKQFVDWLDQASADEVKGVRYSVFGCGDKNWATTYQKVPAFIDETLAAKGAENIADRGEADASDDFEGTYEEWREHMWSDVAAYFNLDIENSEDNKSTLSLQFVDSAADMPLAKMHGAFSTNVVASKELQQPGSARSTRHLEIELPKEASYQEGDHLGVIPRNYEGIVNRVTARFGLDASQQIRLEAEEEKLAHLPLAKTVSVEELLQYVELQDPVTRTQLRAMAAKTVCPPHKVELEALLEKQAYKEQVLAKRLTMLELLEKYPACEMKFSEFIALLPSIRPRYYSISSSPRVDEKQASITVSVVSGEAWSGYGEYKGIASNYLAELQEGDTITCFISTPQSEFTLPKDPETPLIMVGPGTGVAPFRGFVQARKQLKEQGQSLGEAHLYFGCRSPHEDYLYQEELENAQSEGIITLHTAFSRMPNQPKTYVQHVMEQDGKKLIELLDQGAHFYICGDGSQMAPAVEATLMKSYADVHQVSEADARLWLQQLEEKGRYAKDVWAG | 393 and 393 ± 25 | 164 ± 18 | 148 ± 3 Mole product per mole P450 per minute |  |  | 48 | 30 | 22 | 48
